Laboratory results: patent US9981050B2, “Bispecific peptide conjugate and radioactive bispecific peptide imaging agent” (Institute of Nuclear Energy Research, Atomic Energy …, priority 2015, dated 2018)
Read-outs that look alike come from different tables or passages of the source. Values belong to the compound of their own block, whether it stands above or below them.

What was measured:
[1] = PET/CT imaging in NCI-H292 tumor bearing nude mice; format: in vivo; conditions: mouse, iv, subcutaneous NCI-H292 tumor, 11 MBq via tail vein, 2 hours post-injection, PET/CT quantified by PMODE, read-out: tumor/muscle ratio (T/M ratio)
Procedure: In this example, the bispecific peptide conjugate (that is, ^68Ga-NOTA-RGD-GE11) tagged with a radioactive isotope prepared in Example 2 was tested and was compared with monospecific peptide conjugate ^68Ga-NOTA-GE11. The right thigh of nude mice was subcutaneously inoculated with 5×10^6 NCI-H292 tumor cells. The tumors were allowed to grow for about 4 weeks until the tumor size reached 0.5 cm diameter. Then, the animals were anesthetized with isoflorane, injected with 11 MBq ^68Ga-NOTA-RGD-GE11 or ^68Ga-NOTA-GE11 (0.1 mL) via the tail vein, and imaged for 2 hours by Positron Emission Tomography/Computed Tomography (PET/CT). The images were quantified by using PMODE Software.

[2] = biological target: T1, EGFR in A549 tumor cells (Homo sapiens, UniProt P00533); experiment: Specific binding assay: inhibition of anti-EGFR antibody binding to A549 tumor cells; format: cell-based; conditions: various concentrations, 2 hrs, absorbance decreases with increasing concentration
T1 construct: endogenous in cells; host or cells: A549 tumor cells
Procedure: (§1) In this example, the bispecific peptide conjugate (that is, NOTA-c(RGDyk)-cys-6-ahx-GE11) prepared in Example 1 was assayed.
(§2) A549 tumor cells were plated in a 96-well plate (5×10^4 cells/well). Various concentrations of NOTA-c(RGDyk)-cys-6-ahx-GE11 and anti-EGFR antibody or anti-integrin αV antibody were added and reacted for 2 hrs. Then, a secondary antibody and ABTS were added and reacted for 8 hrs. The antibody binding was assayed by a fluorimeter.

[3] = biological target: T2, integrin αV in A549 tumor cells (Homo sapiens, UniProt P05106+P06756); experiment: Specific binding assay: inhibition of anti-integrin αV antibody binding to A549 tumor cells; format: cell-based; conditions: various concentrations, 2 hrs, absorbance decreases with increasing concentration
T2 construct: endogenous in cells; host or cells: A549 tumor cells
T2 sequence (P06756 31-889 limits assumed): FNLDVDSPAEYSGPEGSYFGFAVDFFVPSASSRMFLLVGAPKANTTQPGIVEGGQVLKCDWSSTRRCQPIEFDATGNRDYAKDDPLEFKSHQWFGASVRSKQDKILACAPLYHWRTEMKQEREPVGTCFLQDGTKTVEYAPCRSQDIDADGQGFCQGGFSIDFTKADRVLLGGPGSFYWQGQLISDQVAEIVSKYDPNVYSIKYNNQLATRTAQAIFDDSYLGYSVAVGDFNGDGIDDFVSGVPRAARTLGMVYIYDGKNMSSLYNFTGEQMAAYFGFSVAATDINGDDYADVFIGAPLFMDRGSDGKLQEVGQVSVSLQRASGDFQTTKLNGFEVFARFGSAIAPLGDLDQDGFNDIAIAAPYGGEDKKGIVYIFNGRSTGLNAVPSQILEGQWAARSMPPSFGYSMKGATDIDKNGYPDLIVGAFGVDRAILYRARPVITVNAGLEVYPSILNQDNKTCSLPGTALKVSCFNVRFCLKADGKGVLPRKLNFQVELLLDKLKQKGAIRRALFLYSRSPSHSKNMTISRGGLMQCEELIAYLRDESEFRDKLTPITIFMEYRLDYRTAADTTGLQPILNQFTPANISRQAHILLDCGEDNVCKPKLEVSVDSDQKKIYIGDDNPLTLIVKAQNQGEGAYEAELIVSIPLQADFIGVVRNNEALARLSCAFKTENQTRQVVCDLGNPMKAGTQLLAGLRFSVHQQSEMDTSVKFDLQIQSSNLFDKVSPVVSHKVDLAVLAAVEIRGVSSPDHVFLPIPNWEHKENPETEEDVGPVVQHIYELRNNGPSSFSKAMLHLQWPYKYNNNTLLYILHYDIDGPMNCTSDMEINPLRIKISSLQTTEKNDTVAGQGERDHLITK
T2 sequence (P06756 891-1048 partner limits assumed): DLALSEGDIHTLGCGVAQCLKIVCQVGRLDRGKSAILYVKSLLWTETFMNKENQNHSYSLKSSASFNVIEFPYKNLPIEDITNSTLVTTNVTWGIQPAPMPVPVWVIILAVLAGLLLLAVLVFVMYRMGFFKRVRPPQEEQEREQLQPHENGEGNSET
T2 sequence (P05106 27-788): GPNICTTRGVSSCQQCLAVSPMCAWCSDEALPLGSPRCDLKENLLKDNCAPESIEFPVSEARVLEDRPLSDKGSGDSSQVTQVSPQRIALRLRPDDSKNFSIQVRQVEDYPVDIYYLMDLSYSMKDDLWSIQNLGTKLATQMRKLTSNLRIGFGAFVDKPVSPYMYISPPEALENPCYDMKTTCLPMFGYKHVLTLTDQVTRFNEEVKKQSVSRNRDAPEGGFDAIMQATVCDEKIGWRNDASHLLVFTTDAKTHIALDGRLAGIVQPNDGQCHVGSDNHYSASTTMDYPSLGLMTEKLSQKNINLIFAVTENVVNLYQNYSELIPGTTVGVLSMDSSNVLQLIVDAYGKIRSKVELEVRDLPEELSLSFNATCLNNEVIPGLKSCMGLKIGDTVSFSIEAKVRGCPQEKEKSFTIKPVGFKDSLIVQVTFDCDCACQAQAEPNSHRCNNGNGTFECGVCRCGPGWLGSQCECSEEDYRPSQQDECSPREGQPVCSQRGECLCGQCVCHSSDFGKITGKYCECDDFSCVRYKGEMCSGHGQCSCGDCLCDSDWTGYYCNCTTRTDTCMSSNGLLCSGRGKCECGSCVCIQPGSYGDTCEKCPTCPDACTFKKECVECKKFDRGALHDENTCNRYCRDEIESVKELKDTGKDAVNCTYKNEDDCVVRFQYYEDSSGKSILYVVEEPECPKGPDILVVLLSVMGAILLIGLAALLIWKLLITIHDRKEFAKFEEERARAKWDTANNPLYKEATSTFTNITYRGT
Procedure: as §1, §2

Compound: CC[C@H](C)[C@H](NC(=O)[C@@H](NC(=O)[C@H](CC(N)=O)NC(=O)[C@H](CCC(N)=O)NC(=O)[C@@H]1CCCN1C(=O)[C@@H](NC(=O)[C@H](Cc1ccc(O)cc1)NC(=O)CNC(=O)[C@H](Cc1ccc(O)cc1)NC(=O)[C@H](Cc1c[nH]c2ccccc12)NC(=O)[C@H](Cc1c[nH]cn1)NC(=O)[C@H](Cc1ccc(O)cc1)NC(=O)CCCCCNC(=O)[C@H](CSC1CC(=O)N(CCC(=O)NCCCC[C@@H]2NC(=O)[C@@H](Cc3ccc(O)cc3)NC(=O)[C@H](CC(=O)O)NC(=O)CNC(=O)[C@H](CCCNC(=N)N)NC2=O)C1=O)NC(=O)CN1CCN(CC(=O)O)CCN(CC(=O)O)CC1)[C@@H](C)O)C(C)C)C(=O)O (stereo partly shown) [^68Ga-NOTA-RGD-GE11, metal not drawn]
tissue to tissue ratio at 2 h ([1]; tumor / muscle, total radioactivity): 4.31

inhibition of the binding of the anti-EGFR antibody to tumor cells [2]: can effectively inhibit the binding
inhibition of the binding of the anti-integrin αV antibody to tumor cells [3]: can effectively inhibit the binding
Compound: NOTA-c(RGDyk)-cys-6-ahx-GE11

Compound: CC[C@H](C)[C@H](NC(=O)[C@@H](NC(=O)[C@H](CC(N)=O)NC(=O)[C@H](CCC(N)=O)NC(=O)[C@@H]1CCCN1C(=O)[C@@H](NC(=O)[C@H](Cc1ccc(O)cc1)NC(=O)CNC(=O)[C@H](Cc1ccc(O)cc1)NC(=O)[C@H](Cc1c[nH]c2ccccc12)NC(=O)[C@H](Cc1c[nH]cn1)NC(=O)[C@H](Cc1ccc(O)cc1)NC(=O)CCCCCNC(=O)[C@H](CS)NC(=O)CN1CCN(CC(=O)O)CCN(CC(=O)O)CC1)[C@@H](C)O)C(C)C)C(=O)O [^68Ga-NOTA-GE11, metal not drawn, reference compound]
tissue to tissue ratio at 2 h ([1]; in vivo): 1.87
